Target: prototype SARS-CoV-2 tandem RBD homotrimer (PPP) (SARS-CoV-2, UniProt P0DTC2)
Experiment: SPR

B1: fragment antigen binding (Fab) of mAb CB6 (Fab, V domains shown)
VH: EVQLVESGGGLVQPGGSLRLSCAASGFTVSSNYMSWVRQAPGKGLEWVSVIYSGGSTFYADSVKGRFTISRDNSMNTLFLQMNSLRAEDTAVYYCARVLPMYGDYLDYWGQGTLVTVSS
VL: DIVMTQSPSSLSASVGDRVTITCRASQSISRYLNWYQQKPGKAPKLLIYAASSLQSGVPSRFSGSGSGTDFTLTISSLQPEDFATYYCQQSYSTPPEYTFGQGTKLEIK
B1 gave a Kd of 24.3 nM.

From PMC10538664 (2023)
